Data reported in the supplement of paper PMC10567573.

B1: ZNF232 (parent)
chain: FPKSEQVYLHFLSVVTEDGPEPKD
B2: PWWP2B (parent)
chain: TIRLRPRQVLCEKCKSTLSPPEAS

Variants of: B1
Experiment: protein stability index of a GFP-peptide fusion (GPS, HEK-293T) (PSI 1-6); higher = more stable
Conditions: c terminus: a fixed tail appended
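Also: lentivirally expressed fusions sorted by FACS into six bins by GFP to DsRed ratio, PSI derived from sequencing read proportions per bin multiplied by bin number.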

Row | Variant | protein stability index
1 | FPKSEQVYLHFLSVVTEDGPEGKD [P22G] | 1.75
2 | FPKSEQVYLHFLSVVTEDGPEFKD [P22F] | 1.67
3 | FPKSEQVYLHFLSVVTEDGPENKD [P22N] | 2.37
4 | FPKSEQVYLHFLSVVTEDGPEYKD [P22Y] | 1.25

Variants of: B2
Experiment: as above
Conditions: c terminus: a fixed tail appended

Row | Variant | protein stability index
5 | TIRLRPRQVLCEKCKSTLSPPEWS [A23W] | 1.96
6 | TIRLRPRQVLCEKCKSTLSPPEQS [A23Q] | 3.94
7 | TIRLRPRQVLCEKCKSTLSPPELS [A23L] | 2.47
8 | TIRLRPRQVLCEKCKSTLSPPERS [A23R] | 2.73
9 | TIRLRPRQVLCEKCKSTLSPPEDS [A23D] | 3.54
10 | TIRLRPRQVLCEKCKSTLSPPESS [A23S] | 2.75
11 | TIRLRPRQVLCEKCKSTLSPPEES [A23E] | 3.49
12 | TIRLRPRQVLCEKCKSTLSPPECS [A23C] | 3.15
13 | TIRLRPRQVLCEKCKSTLSPPENS [A23N] | 3.12
14 | TIRLRPRQVLCEKCKSTLSPPEGS [A23G] | 2.87
15 | TIRLRPRQVLCEKCKSTLSPPEFS [A23F] | 2.43
16 | TIRLRPRQVLCEKCKSTLSPPETS [A23T] | 2.99
17 | TIRLRPRQVLCEKCKSTLSPPEMS [A23M] | 3.01
18 | TIRLRPRQVLCEKCKSTLSPPEPS [A23P] | 3.3
19 | TIRLRPRQVLCEKCKSTLSPPEHS [A23H] | 2.83
20 | TIRLRPRQVLCEKCKSTLSPPEIS [A23I] | 2.61
21 | TIRLRPRQVLCEKCKSTLSPPEVS [A23V] | 2.91
22 | TIRLRPRQVLCEKCKSTLSPPEYS [A23Y] | 2.47
23 | TIRLRPRQVLCEKCKSTLSPPEKS [A23K] | 3.02
24 | TIRLRPRQVLCEKCKSTLSPPAAS [E22A] | 2.66
25 | TIRLRPRQVLCEKCKSTLSPPIAS [E22I] | 2.09
26 | TIRLRPRQVLCEKCKSTLSPPLAS [E22L] | 2.85
27 | TIRLRPRQVLCEKCKSTLSPPRAS [E22R] | 2.32

Row | Variant | protein stability index
28 | TIRLRPRQVLCEKCKSTLSPPQAS [E22Q] | 2.58
29 | TIRLRPRQVLCEKCKSTLSPPHAS [E22H] | 2.34
30 | TIRLRPRQVLCEKCKSTLSPPMAS [E22M] | 2.4
31 | TIRLRPRQVLCEKCKSTLSPPSAS [E22S] | 2.81
32 | TIRLRPRQVLCEKCKSTLSPPPAS [E22P] | 2.69
33 | TIRLRPRQVLCEKCKSTLSPPWAS [E22W] | 1.94
34 | TIRLRPRQVLCEKCKSTLSPPCAS [E22C] | 2.42
35 | TIRLRPRQVLCEKCKSTLSPPKAS [E22K] | 2.62
36 | TIRLRPRQVLCEKCKSTLSPPFAS [E22F] | 2.02
37 | TIRLRPRQVLCEKCKSTLSPPDAS [E22D] | 3.41
38 | TIRLRPRQVLCEKCKSTLSPPVAS [E22V] | 3.18
39 | TIRLRPRQVLCEKCKSTLSPPGAS [E22G] | 2.18
40 | TIRLRPRQVLCEKCKSTLSPPYAS [E22Y] | 2.31
41 | TIRLRPRQVLCEKCKSTLSPPNAS [E22N] | 2.46
42 | TIRLRPRQVLCEKCKSTLSPPTAS [E22T] | 3.15
43 | TIRLRPRQVLCEKCKSTLSPPEAI [S24I] | 2.78
44 | TIRLRPRQVLCEKCKSTLSPPEAD [S24D] | 3.44
45 | TIRLRPRQVLCEKCKSTLSPPEAQ [S24Q] | 3.09
46 | TIRLRPRQVLCEKCKSTLSPPEAL [S24L] | 2.66
47 | TIRLRPRQVLCEKCKSTLSPPEAF [S24F] | 2.36
48 | TIRLRPRQVLCEKCKSTLSPPEAP [S24P] | 2.9
49 | TIRLRPRQVLCEKCKSTLSPPEAV [S24V] | 2.62
50 | TIRLRPRQVLCEKCKSTLSPPEAE [S24E] | 3.28

Row | Variant | protein stability index
51 | TIRLRPRQVLCEKCKSTLSPPEAT [S24T] | 3.25
52 | TIRLRPRQVLCEKCKSTLSPPEAG [S24G] | 2.6
53 | TIRLRPRQVLCEKCKSTLSPPEAR [S24R] | 3.02
54 | TIRLRPRQVLCEKCKSTLSPPEAN [S24N] | 2.98
55 | TIRLRPRQVLCEKCKSTLSPPEAK [S24K] | 2.7
56 | TIRLRPRQVLCEKCKSTLSPPEAH [S24H] | 2.63
57 | TIRLRPRQVLCEKCKSTLSPPEAC [S24C] | 2.99
58 | TIRLRPRQVLCEKCKSTLSPPEAW [S24W] | 1.93
59 | TIRLRPRQVLCEKCKSTLSPPEAM [S24M] | 1.97
60 | TIRLRPRQVLCEKCKSTLSPPEAA [S24A] | 2.64
61 | TIRLRPRQVLCEKCKSTLSPPEAY [S24Y] | 2.89
62 | TIRLRPRQVLCEKCKSTLSWPEAS [P20W] | 2.45
63 | TIRLRPRQVLCEKCKSTLSKPEAS [P20K] | 2.66
64 | TIRLRPRQVLCEKCKSTLSTPEAS [P20T] | 2.76
65 | TIRLRPRQVLCEKCKSTLSQPEAS [P20Q] | 3.03
66 | TIRLRPRQVLCEKCKSTLSMPEAS [P20M] | 2.55
67 | TIRLRPRQVLCEKCKSTLSYPEAS [P20Y] | 2.42
68 | TIRLRPRQVLCEKCKSTLSRPEAS [P20R] | 2.65
69 | TIRLRPRQVLCEKCKSTLSLPEAS [P20L] | 2.41
70 | TIRLRPRQVLCEKCKSTLSIPEAS [P20I] | 2.44
71 | TIRLRPRQVLCEKCKSTLSSPEAS [P20S] | 2.79
72 | TIRLRPRQVLCEKCKSTLSNPEAS [P20N] | 2.63
73 | TIRLRPRQVLCEKCKSTLSHPEAS [P20H] | 2.24

Row | Variant | protein stability index
74 | TIRLRPRQVLCEKCKSTLSGPEAS [P20G] | 3.29
75 | TIRLRPRQVLCEKCKSTLSVPEAS [P20V] | 2.9
76 | TIRLRPRQVLCEKCKSTLSPAEAS [P21A] | 3.29
77 | TIRLRPRQVLCEKCKSTLSPEEAS [P21E] | 3.63
78 | TIRLRPRQVLCEKCKSTLSPFEAS [P21F] | 2.56
79 | TIRLRPRQVLCEKCKSTLSPYEAS [P21Y] | 2.42
80 | TIRLRPRQVLCEKCKSTLSPCEAS [P21C] | 2.72
81 | TIRLRPRQVLCEKCKSTLSPLEAS [P21L] | 2.08
82 | TIRLRPRQVLCEKCKSTLSPHEAS [P21H] | 2.79
83 | TIRLRPRQVLCEKCKSTLSPKEAS [P21K] | 3.21
84 | TIRLRPRQVLCEKCKSTLSPMEAS [P21M] | 2.73
85 | TIRLRPRQVLCEKCKSTLSPQEAS [P21Q] | 2.98
86 | TIRLRPRQVLCEKCKSTLSPREAS [P21R] | 2.72
87 | TIRLRPRQVLCEKCKSTLSPVEAS [P21V] | 2.95
88 | TIRLRPRQVLCEKCKSTLSPDEAS [P21D] | 3.89
89 | TIRLRPRQVLCEKCKSTLSPIEAS [P21I] | 2.67
90 | TIRLRPRQVLCEKCKSTLSPSEAS [P21S] | 3.5
91 | TIRLRPRQVLCEKCKSTLSPGEAS [P21G] | 2.78
92 | TIRLRPRQVLCEKCKSTLSPTEAS [P21T] | 2.69
93 | TIRLRPRQVLCEKCKSTLSPWEAS [P21W] | 2.35
94 | TIRLRPRQVLCEKCKSTLSPNEAS [P21N] | 2.95
